According to article PMC8368002, “Crystal structure of the INTS3/INTS6 complex reveals the functional importance of INTS3 dimerization in DSB repair” (Cell Discovery, 2020):

B3: C-terminus of INTS3 (INTS3c), residues 560–905 and 915–995 (domain or fragment, human)
chain 1: TVVEEPVDITPYLDQLDESLRDKVLQLQKGSDTEAQCEVMQEIVDQVLEEDFDSEQLSVLASCLQELFKAHFRGEVLPEEITEESLEESVGKPLYLIFRNLCQMQEDNSSFSLLLDLLSELYQKQPKIGYHLLYYLRASKAAAGKMNLYESFAQATQLGDLHTCLMMDMKACQEDDVRLLCHLTPSIYTEFPDETLRSGELLNMIVAVIDSAQLQELVCHVMMGNLVMFRKDSVLNILIQSLDWETFEQYCAWQLFLAHNIPLETIIPILQHLKYKEHPEALSCLLLQLRREKPSEEMVKMVLSRPCHPDDQFTTSILRHWCMKHDELLAEHIKSLLIKNNSLPRK
chain 2: KLAQLTLEQILEHLDNLRLNLTNTKQNFFSQTPILQALQHVQASCDEAHKMKFSDLFSLAEEYEDSSTKPPKSRRKAALSS
notes: Two polypeptides of one protein, co-expressed; residues 906-914 are absent; A selenomethionine form was used for phasing (2.6 Å); the final structure is of native crystals (2.4 Å); copies: 2 + 2

How the values were obtained:
[1] = target: B3; assay: crystal structure; INTS3c/INTS6c complex from purified parts, crystallised in 1.7 M ammonium citrate tribasic pH 7.0, 4% v/v pentaerythritol ethoxylate; SAD on selenomethionine INTS3c, native data to 2.4 Å; details: both partners purified
[2] = target: the molecule itself; assay: SEC; analytical size-exclusion chromatography of co-expressed and purified INTS3-hSSB1 complexes (Supplementary Fig. S2)
[3] = target: the molecule itself; assay: crystal structure; INTS3c/INTS6c complex from purified parts, crystallised in 1.7 M ammonium citrate tribasic pH 7.0, 4% v/v pentaerythritol ethoxylate; SAD on selenomethionine INTS3c, native data to 2.4 Å
INTS3 full length;hSSB1 = INTS3 full length;hSSB1 (human;human, UniProt Q68E01-2;Q9BQ15 1-1042;1-211, |); assay: SPR; KD only in Fig. S5d; EMSA: 50 mM NaCl, 20 mM HEPES pH 7.5, 1 mM MgCl2, 0.5 mM EDTA, 0.2 mM DTT, on ice 1 h; SPR: 200 mM NaCl, 40 mM HEPES pH 7.5, 50 uM EDTA, 25 C; details: protein: recombinant;recombinant; tags: ;; copies: 1;1
hSSB1 [4] = target: T1, hSSB1 (human, UniProt Q9BQ15 1-211); assay: SPR; hSSB1 immobilized; comparable to INTS3(1-500)/hSSB1; KD only in Fig. S5a; EMSA: 50 mM NaCl, 20 mM HEPES pH 7.5, 1 mM MgCl2, 0.5 mM EDTA, 0.2 mM DTT, on ice 1 h; SPR: 200 mM NaCl, 40 mM HEPES pH 7.5, 50 uM EDTA, 25 C; details: protein: recombinant
INTS3(1-995);hSSB1 [5] = target: T2, INTS3(1-995);hSSB1 (human;human, UniProt Q68E01-2;Q9BQ15 1-995;1-211, |); assay: SPR; KD only in Fig. S5c; EMSA: 50 mM NaCl, 20 mM HEPES pH 7.5, 1 mM MgCl2, 0.5 mM EDTA, 0.2 mM DTT, on ice 1 h; SPR: 200 mM NaCl, 40 mM HEPES pH 7.5, 50 uM EDTA, 25 C; details: protein: recombinant;recombinant; tags: ;; chain copies: 2;2
[6] = target: T3, INTS3(1-500) (INTS3N);hSSB1 (human;human, UniProt Q68E01-2;Q9BQ15 1-500;1-211, |); assay: SPR; comparable to hSSB1 alone; KD only in Fig. S5b; EMSA: 50 mM NaCl, 20 mM HEPES pH 7.5, 1 mM MgCl2, 0.5 mM EDTA, 0.2 mM DTT, on ice 1 h; SPR: 200 mM NaCl, 40 mM HEPES pH 7.5, 50 uM EDTA, 25 C; details: protein: recombinant;recombinant; tags: ;; copies: 1;1
INTS3(1-995);hSSB1 [7] = target: T2, INTS3(1-995);hSSB1; assay: EMSA; comparable affinities among the three; EMSA: 50 mM NaCl, 20 mM HEPES pH 7.5, 1 mM MgCl2, 0.5 mM EDTA, 0.2 mM DTT, on ice 1 h; SPR: 200 mM NaCl, 40 mM HEPES pH 7.5, 50 uM EDTA, 25 C; details: protein: recombinant;recombinant; tags: ;; chain copies: 2;2
[8] = target: T3, INTS3(1-500) (INTS3N);hSSB1; assay: as above; details: protein: recombinant;recombinant; tags: ;; copies: 1;1
hSSB1 [9] = target: T1, hSSB1; assay: as above; details: protein: recombinant
INTS3c = INTS3c (human, UniProt Q68E01-2;Q68E01-2 560-905;915-995); assay: EMSA; INTS3c alone unable to bind ssDNA; method inferred; EMSA: 50 mM NaCl, 20 mM HEPES pH 7.5, 1 mM MgCl2, 0.5 mM EDTA, 0.2 mM DTT, on ice 1 h; SPR: 200 mM NaCl, 40 mM HEPES pH 7.5, 50 uM EDTA, 25 C; details: protein: recombinant; tags: GST removed
INTS3(1-995);hSSB1 [10] = target: T2, INTS3(1-995);hSSB1; assay: EMSA; 1 mM MgCl2; EMSA: 50 mM NaCl, 20 mM HEPES pH 7.5, 1 mM MgCl2, 0.5 mM EDTA, 0.2 mM DTT, on ice 1 h; SPR: 200 mM NaCl, 40 mM HEPES pH 7.5, 50 uM EDTA, 25 C; details: protein: recombinant;recombinant; tags: ;; chain copies: 2;2; label: 6-FAM (printed 6'-carboxy-fluorescein)
[11] = target: INTS3(1-995);hSSB1;INTS6c (human;human;human, UniProt Q68E01-2;Q9BQ15;Q9UL03 1-995;1-211;800-887, ||); assay: EMSA; 1 mM MgCl2; INTS6c 1:1, no effect on binding; EMSA: 50 mM NaCl, 20 mM HEPES pH 7.5, 1 mM MgCl2, 0.5 mM EDTA, 0.2 mM DTT, on ice 1 h; SPR: 200 mM NaCl, 40 mM HEPES pH 7.5, 50 uM EDTA, 25 C; details: protein: recombinant;recombinant;recombinant; tags: ;;GST removed; chain copies: 2;2;2; label: 6-FAM (printed 6'-carboxy-fluorescein)
INTS3(1-995);hSSB1;INTS6c, sequence (Q9BQ15 whole entry, one chain of several): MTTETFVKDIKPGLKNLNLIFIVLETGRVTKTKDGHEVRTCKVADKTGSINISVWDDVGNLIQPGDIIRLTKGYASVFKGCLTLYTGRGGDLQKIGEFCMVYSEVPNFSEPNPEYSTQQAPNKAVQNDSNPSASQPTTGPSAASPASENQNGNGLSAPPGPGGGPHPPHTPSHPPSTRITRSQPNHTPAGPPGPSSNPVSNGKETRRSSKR

T2 sequence (Q9BQ15 whole entry, one chain of several): as above
T1 sequence (Q9BQ15 whole entry): as the sequence (Q9BQ15 whole entry, one chain of several) above
T3 sequence (Q9BQ15 whole entry, one chain of several): as above
INTS3c, sequence (Q68E01 916-996, chain 2 of 2, one chain of several): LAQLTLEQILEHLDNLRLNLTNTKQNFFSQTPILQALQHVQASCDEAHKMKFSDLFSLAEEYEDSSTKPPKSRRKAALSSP
INTS3 full length;hSSB1, sequence (Q9BQ15 whole entry, one chain of several): as the sequence (Q9BQ15 whole entry, one chain of several) above

B1: C-terminus of INTS6 (INTS6c), residues 800–887 (domain or fragment, human, UniProt Q9UL03 800-887, looked up)
chain: MHCRSHEEVNTELKAQIMKEIRKPGRKYERIFTLLKHVQGSLQTRLIFLQNVIKEASRFKKRMLIEQLENFLDEIHRRANQINHINSN
notes: integrator complex subunit 6 (INTS6), human, residues 800-887; Cloned into pGEX-6p-1
- stoichiometry N [1]: 2 INTS3c:INTS6c

B2: INTS3(1−995) (domain or fragment, human, UniProt Q68E01 1-995, looked up)
chain: MELQKGKGAAAAAAASGAAGGGGGGAGAGAPGGGRLLLSTSLDAKDELEERLERCMSIVTSMTAGVSEREANDALNAYVCKGLPQHEEICLGLFTLILTEPAQAQKCYRDLALVSRDGMNIVLNKINQILMEKYLKLQDTCRTQLVWLVRELVKSGVLGADGVCMTFMKQIAGGGDVTAKNIWLAESVLDILTEQREWVLKSSILIAMAVYTYLRLIVDHHGTAQLQALRQKEVDFCISLLRERFMECLMIGRDLVRLLQNVARIPEFELLWKDIIHNPQALSPQFTGILQLLQSRTSRKFLACRLTPDMETKLLFMTSRVRFGQQKRYQDWFQRQYLSTPDSQSLRCDLIRYICGVVHPSNEVLSSDILPRWAIIGWLLTTCTSNVAASNAKLALFYDWLFFSPDKDSIMNIEPAILVMHHSMKPHPAITATLLDFMCRIIPNFYPPLEGHVRQGVFSSLNHIVEKRVLAHLAPLFDNPKLDKELRAMLREKFPEFCSSPSPPVEVKIEEPVSMEMDNHMSDKDESCYDNAEAAFSDDEEDLNSKGKKREFRFHPIKETVVEEPVDITPYLDQLDESLRDKVLQLQKGSDTEAQCEVMQEIVDQVLEEDFDSEQLSVLASCLQELFKAHFRGEVLPEEITEESLEESVGKPLYLIFRNLCQMQEDNSSFSLLLDLLSELYQKQPKIGYHLLYYLRASKAAAGKMNLYESFAQATQLGDLHTCLMMDMKACQEDDVRLLCHLTPSIYTEFPDETLRSGELLNMIVAVIDSAQLQELVCHVMMGNLVMFRKDSVLNILIQSLDWETFEQYCAWQLFLAHNIPLETIIPILQHLKYKEHPEALSCLLLQLRREKPSEEMVKMVLSRPCHPDDQFTTSILRHWCMKHDELLAEHIKSLLIKNNSLPRKRQSLRSSSSKLAQLTLEQILEHLDNLRLNLTNTKQNFFSQTPILQALQHVQASCDEAHKMKFSDLFSLAEEYEDSSTKPPKSRRKAALSS
notes: The complex with hSSB1 was held on an NTA chip for SPR with DNA, so one of its chains may carry a His tag; source: co-expressed with hSSB1 and purified
- stoichiometry N [2]: 2

Binder: B3
- stoichiometry N [3]: 2

Binder: TTTTTTTTTTTTTTTTTTTTTTTTTTTTTTTTTTTTTTTTTTTTTTTT (ssDNA) [dT48]
- binding result (INTS3 full length;hSSB1): binds
- binding result (hSSB1 [4]): binds
- binding result (INTS3(1-995);hSSB1 [5]): binds
- binding result [6]: binds

Binder: TTTTTTTTTTTT (ssDNA) [dT12]
- binding result (INTS3(1-995);hSSB1 [7]): binds
- binding result [8]: binds
- binding result (hSSB1 [9]): binds

Binder: TTTTTTTTTTTTTTTTTTTTTTTTTTTTTTTTTTTTTTTTTTTTTTTT (ssDNA) [ssDNA of Fig. S4d]
- binding result (INTS3c): no binding

Binder: TTTTTTTTTTTTTTTTTTTTTTTTTTTTTTTTTTTTTTTTTTTTTTTT (ssDNA) [dT48 (FAM)]
- binding result (INTS3(1-995);hSSB1 [10]): binds
- binding result [11]: binds
